{
  "source": "patent US9127040B2",
  "about": "“Regulation of sodium channels by PLUNC proteins” (The University of North Carolina at Chapel Hill, priority 2011, dated 2015)",
  "molecular_target": "T1, α, β and γENaC subunits (Rattus norvegicus, UniProt P37089+P37090+P37091)",
  "T1 construct": "expressed in transfected cells; host or cells: Xenopus oocytes (cRNA injection; with or without V5-SPLUNC1 and CAP2)",
  "T1 sequence (P37089 1-698)": "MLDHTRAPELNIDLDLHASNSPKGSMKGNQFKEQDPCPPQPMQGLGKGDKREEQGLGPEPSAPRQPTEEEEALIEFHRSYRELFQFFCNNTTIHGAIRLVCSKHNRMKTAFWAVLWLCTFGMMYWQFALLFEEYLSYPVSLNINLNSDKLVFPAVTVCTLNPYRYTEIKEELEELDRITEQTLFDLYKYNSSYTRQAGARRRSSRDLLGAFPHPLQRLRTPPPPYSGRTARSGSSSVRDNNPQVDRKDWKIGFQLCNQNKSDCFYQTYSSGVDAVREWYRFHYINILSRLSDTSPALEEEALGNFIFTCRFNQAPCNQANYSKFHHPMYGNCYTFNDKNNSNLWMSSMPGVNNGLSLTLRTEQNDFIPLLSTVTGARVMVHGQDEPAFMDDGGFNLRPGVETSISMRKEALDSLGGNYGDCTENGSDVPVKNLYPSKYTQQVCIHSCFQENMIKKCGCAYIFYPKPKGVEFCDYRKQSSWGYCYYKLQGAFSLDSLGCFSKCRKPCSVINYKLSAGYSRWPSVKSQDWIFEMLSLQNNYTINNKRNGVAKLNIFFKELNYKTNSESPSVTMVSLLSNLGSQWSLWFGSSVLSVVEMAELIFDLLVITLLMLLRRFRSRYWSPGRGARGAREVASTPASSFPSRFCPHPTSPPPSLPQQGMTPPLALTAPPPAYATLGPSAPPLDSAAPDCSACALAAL",
  "T1 sequence (P37090 1-638)": "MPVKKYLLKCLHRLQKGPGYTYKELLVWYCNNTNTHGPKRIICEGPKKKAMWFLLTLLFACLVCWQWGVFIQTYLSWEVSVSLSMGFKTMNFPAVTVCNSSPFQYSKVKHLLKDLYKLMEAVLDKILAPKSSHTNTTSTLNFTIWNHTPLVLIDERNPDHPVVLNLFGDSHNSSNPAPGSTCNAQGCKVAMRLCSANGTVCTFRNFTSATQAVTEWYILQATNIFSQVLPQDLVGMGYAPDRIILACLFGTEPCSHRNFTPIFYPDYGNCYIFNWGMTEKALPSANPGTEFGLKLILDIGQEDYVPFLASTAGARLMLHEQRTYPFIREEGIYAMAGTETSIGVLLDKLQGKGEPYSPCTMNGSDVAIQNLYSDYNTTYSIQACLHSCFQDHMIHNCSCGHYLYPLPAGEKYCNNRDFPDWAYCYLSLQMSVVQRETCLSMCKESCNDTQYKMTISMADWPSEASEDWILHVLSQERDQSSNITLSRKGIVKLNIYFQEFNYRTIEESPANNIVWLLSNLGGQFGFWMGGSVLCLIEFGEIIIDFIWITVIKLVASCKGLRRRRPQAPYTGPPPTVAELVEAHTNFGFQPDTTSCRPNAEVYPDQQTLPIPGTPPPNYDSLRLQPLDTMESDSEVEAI",
  "T1 sequence (P37091 1-650)": "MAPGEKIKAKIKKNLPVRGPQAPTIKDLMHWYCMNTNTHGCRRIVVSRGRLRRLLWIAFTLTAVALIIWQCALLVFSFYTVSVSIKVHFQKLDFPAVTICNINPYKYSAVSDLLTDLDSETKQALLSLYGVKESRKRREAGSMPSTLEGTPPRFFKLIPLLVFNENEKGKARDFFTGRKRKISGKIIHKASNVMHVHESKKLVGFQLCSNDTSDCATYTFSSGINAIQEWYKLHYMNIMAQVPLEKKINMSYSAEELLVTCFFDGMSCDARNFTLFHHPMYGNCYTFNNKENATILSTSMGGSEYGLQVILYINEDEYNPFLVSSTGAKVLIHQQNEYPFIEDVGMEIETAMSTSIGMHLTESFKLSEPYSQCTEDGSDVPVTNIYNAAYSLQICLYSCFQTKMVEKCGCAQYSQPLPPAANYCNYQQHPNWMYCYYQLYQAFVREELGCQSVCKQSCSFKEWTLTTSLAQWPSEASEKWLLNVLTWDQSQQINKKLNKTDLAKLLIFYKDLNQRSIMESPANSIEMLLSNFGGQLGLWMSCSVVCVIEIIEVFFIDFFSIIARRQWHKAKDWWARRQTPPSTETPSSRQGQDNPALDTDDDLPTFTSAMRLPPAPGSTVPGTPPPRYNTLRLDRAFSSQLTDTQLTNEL",
  "experiment": "Co-immunoprecipitation of V5-tagged SPLUNC1 with HA-tagged ENaC subunits in Xenopus oocytes",
  "type": "binding",
  "conditions": "V5-tagged SPLUNC1, anti-HA immunoprecipitation",
  "protocol": "Xenopus oocytes were injected with either HA-N-Terminus or V5-C-Terminus (HA-NT/V5-CT) tagged subunits in combination with wild type (WT) untagged rat αβγENaC subunits (0.3 ng cRNA each) with or without V5-tagged SPLUNC1 and CAP2 (1 ng cRNA each). After 24 h, 40 eggs per experimental condition were lysed with buffer containing (in mM): 20 Tris, 50 NaCl, 50 NaF, 10 β-glycerophosphate, 5 Na4P2O7 pyrophosphate, 1 EDTA, pH 7.5 and protease inhibitors (complete, Roche), aprotinin (Sigma). Cell lysates were prepared by passing the eggs through a 27G1/2 needle twice and by centrifugation at 3,600 rpm for 10 minutes at 4° C. Supernatants were transferred to new tubes and samples were spun at 14,000 rpm for 20 minutes at 4° C. Supernatants were discarded and pellets were solubilized in (mM) 50 Tris, 100 NaCl, 0.1% Triton X-100, 0.1% NP-40, 20 NaF, 10 Na4P2O7, 10 EDTA+protease inhibitor cocktail (Sigma), pH 7.5. Total inputs were taken from whole cell samples representing 4% of total protein. Solubilized proteins were incubated with 50 μl of protein A and 5 μl of anti-HA antibody (Covance) overnight while tumbling at 4° C. Samples were washed three times with (mM) 150 NaCl 50 Tris pH 7.5 buffer. Laemmli buffer was added and samples were loaded on a 15% gradient Tris-glycine gel after incubation for 10 minutes at 96° C. […]",
  "data": [
    {"molecule": "SPLUNC1: human SPLUNC1 (SEQ ID NO:1), 256 amino acid secreted PLUNC family protein; rSPLUNC1 is the purified V5/6His-tagged recombinant form (protein, listed as Homo sapiens, V5/6His tag in recombinant form, rSPLUNC1 is the purified V5/6His-tagged recombinant form) MFQTGGLIVFYGLLAQTMAQFGGLPVPLDQTLPLNVNPALPLSPTGLAGSLTNALSNGLLSGGLLGILENLPLLDILKPGGGTSGGLLGGLLGKVTSVIPGLNNIIDIKVTDPQLLELGLVQSPDGHRLYVTIPLGIKLQVNTPLVGASLLRLAVKLDITAEILAVRDKQERIHLVLGDCTHSPGSLQISLLDGLGPLPIQGLLDSLTGILNKVLPELVQGNVCPLVNEVLRGLDITLVHDIVNMLIHGLQFVIKV", "values": [
      {"measurement": "binding to ENaC subunits (co-immunoprecipitation)", "value": "bound to all three ENaC subunits"}
    ]}
  ]
}
